Residue numbers refer to the chain shown, from its start. Like-named read-outs stand apart in the source and are kept apart here.
Tests used:
cryo-EM structure [1] = molecular target: the molecule itself; experiment: cryo-EM structure
[2] = molecular target: T1, hPLD3 luminal domain H201A/H416A (hPLD3_HA) (Homo sapiens, UniProt Q8IV08 61-490, H201A;H416A); experiment: EMSA
T1 sequence: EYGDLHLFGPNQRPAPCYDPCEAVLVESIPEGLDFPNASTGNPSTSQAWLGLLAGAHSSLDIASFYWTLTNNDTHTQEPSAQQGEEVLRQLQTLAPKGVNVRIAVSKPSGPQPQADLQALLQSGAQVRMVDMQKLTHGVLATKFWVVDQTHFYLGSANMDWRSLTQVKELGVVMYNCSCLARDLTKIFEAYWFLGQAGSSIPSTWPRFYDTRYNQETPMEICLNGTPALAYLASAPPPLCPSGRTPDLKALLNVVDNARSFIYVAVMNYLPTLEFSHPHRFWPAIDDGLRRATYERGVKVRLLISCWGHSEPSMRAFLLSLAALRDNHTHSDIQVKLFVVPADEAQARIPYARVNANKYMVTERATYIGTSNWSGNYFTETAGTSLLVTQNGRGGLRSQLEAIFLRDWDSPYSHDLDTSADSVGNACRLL

cryo-EM structure [3] = molecular target: the molecule itself; experiment: cryo-EM structure; remark: listed apart in the source

B1: human PLD3 luminal domain, wild type (domain or fragment, UniProt Q8IV08 61-490, looked up)
chain: T1 sequence with A141H, A356H
modifications: four N-linked glycans observed in the cryo-EM structure (all sites except Asn97)
For B1, the “stoichiometry N” value (cryo-EM structure [1]) was 2.

ACGTTCCTGATGCTAAGTATGCACTTCATCGTCAAGCAATGCTATGCAT (ssDNA) [Substrate-I (49 nt)]: binds [2].

B2: human PLD4 luminal domain, wild type (domain or fragment, UniProt Q96BZ4 91-506, looked up)
chain: RDSCQLVLVESIPQDLPSAAGSPSAQPLGQAWLQLLDTAQESVHVASYYWSLTGPDIGVNDSSSQLGEALLQKLQQLLGRNISLAVATSSPTLARTSTDLQVLAARGAHVRQVPMGRLTRGVLHSKFWVVDGRHIYMGSANMDWRSLTQVKELGAVIYNCSHLAQDLEKTFQTYWVLGVPKAVLPKTWPQNFSSHFNRFQPFHGLFDGVPTTAYFSASPPALCPQGRTRDLEALLAVMGSAQEFIYASVMEYFPTTRFSHPPRYWPVLDNALRAAAFGKGVRVRLLVGCGLNTDPTMFPYLRSLQALSNPAANVSVDVKVFIVPVGNHSNIPFSRVNHSKFMVTEKAAYIGTSNWSEDYFSSTAGVGLVVTQSPGAQPAGATVQEQLRQLFERDWSSRYAVGLDGQAPGQDCVWQG
modifications: six N-linked glycans observed in the cryo-EM structure
With B2 the “stoichiometry N” value (cryo-EM structure [3]) was 4.
